Source: patent CN111732654A (WUHAN INST OF BIOLOGICAL PRODUCTS CO LTD, dated 2020)

Assays:
[1] = molecular target: SARS-CoV-2刺突S1-His重组蛋白 (Sino公司，货号:40591-V08H) (SARS-CoV-2 (2019-nCoV), UniProt P0DTC2 16-685)
[2] = molecular target: SARS-CoV-2刺突蛋白S1的RBD结构域重组蛋白 (Sino公司，货号40592-V05H) (SARS-CoV-2 (2019-nCoV), UniProt P0DTC2 319-541)

B1: 单克隆抗体1E10 (人源抗SARS-CoV-2抗体1E10) (antibody, V domains shown)
VH: EVQLVQSGAEVKKPGSSVKVSCKASGGTFSSYAISWVRQAPGQGLEWMGRIIPILGIANYAQKFQGRVTITADKSTSTAYMELSSLRSEDTAVYYCAREVSDFDWLYRSHYGMDVWGQGTTVTVSS
VL: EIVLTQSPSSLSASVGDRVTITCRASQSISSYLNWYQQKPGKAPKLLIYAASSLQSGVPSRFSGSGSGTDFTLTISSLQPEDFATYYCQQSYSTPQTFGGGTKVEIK
[1]
  EC50: 0.029 nM
[2]
  EC50: 0.044 nM
